# Reference: publication doi:10.1101/2024.09.05.611543 (bioRxiv, 2024)
# B1: CaKip3 MD-PT (motor domain, neck linker, neck extension and proximal tail domain; residues 1-707) (domain or fragment, Candida albicans, UniProt A0A1D8PKA4 1-707, looked up)
# chain: MSYPNSLGSPATVTSTSVPTAKQSSISVAVRVRPFTEAESNRLVKIDNDDVFLGDGCLTSDNNNNNNNSNSNGNGNGNGSSAANSSGASTSRRAIFNTLGGLRKIINVVDDRMLIFDPPETNPLTKMQRNAFPNSFKGSRIREHRFVFDRLFDEDCTQDQVYRNTTQPLLDSVLDGYNATVFAYGATGCGKTHTISGTPEDPGVIFLTMKELYNRIEELKDTKIIDISLSYLEIYNETIRDLLNPMTQCKNLVIREDANNKISVSNLSRHRPNSVEEVMQLILEGNKNRTCSPTEANATSSRSHAVLQINVIQKDRTGDITEEHTFATLSIIDLAGSERAAATKNRGARLNEGANINKSLLALGNCINALCDPRRRNHVPYRDSKLTRLLKFSLGGNCKTVMIVCVSPSSQHYDETLNTLKYADRAKEIKTKLIRNQHNLDRHVGSYLKMITEQKQEIEELRARESKMVESTINKRKDLESKVFKILFESLESTRKAIAKQNQEKWKKYFILAKRKLLLSQKIETELVLEQRDDIDINSLSIASGNESESVFKIYDLCEQLISKIEYQLPQLESQYSQPTDLDYILEDSAMQTLKRLQDEEGWTEHHSAIYRQSIQSMKREVHTDLLLYSSILYDNLIHDLSIFFYIPREIGNFINNISNPTSLNEANQELLYNMTLGLENLLNGEFDSAMEHYAMDYMKNKVESEN
# B2: CaKip3 NE-PT (neck extension and proximal tail; residues 444-707), His6-MBP fusion (domain or fragment, Candida albicans, UniProt A0A1D8PKA4 444-707, looked up)
# chain: VGSYLKMITEQKQEIEELRARESKMVESTINKRKDLESKVFKILFESLESTRKAIAKQNQEKWKKYFILAKRKLLLSQKIETELVLEQRDDIDINSLSIASGNESESVFKIYDLCEQLISKIEYQLPQLESQYSQPTDLDYILEDSAMQTLKRLQDEEGWTEHHSAIYRQSIQSMKREVHTDLLLYSSILYDNLIHDLSIFFYIPREIGNFINNISNPTSLNEANQELLYNMTLGLENLLNGEFDSAMEHYAMDYMKNKVESEN
# B3: CaKip3 PT (proximal tail only; residues 475-707), His6-MBP fusion (domain or fragment, Candida albicans, UniProt A0A1D8PKA4 475-707, looked up)
# chain: KRKDLESKVFKILFESLESTRKAIAKQNQEKWKKYFILAKRKLLLSQKIETELVLEQRDDIDINSLSIASGNESESVFKIYDLCEQLISKIEYQLPQLESQYSQPTDLDYILEDSAMQTLKRLQDEEGWTEHHSAIYRQSIQSMKREVHTDLLLYSSILYDNLIHDLSIFFYIPREIGNFINNISNPTSLNEANQELLYNMTLGLENLLNGEFDSAMEHYAMDYMKNKVESEN
# Molecular target: the molecule itself
# Experiment: SEC-MALS
row,Protein,stoichiometry N
1,B1,2
2,B2,2
3,B3,2
